Data as given in the supplement of paper PMC10567573.

B1: CD69 (parent)
chain: FVAENSSLHPESGQENDATSPHFS

Variants of: B1
Test: protein stability index of a GFP-peptide fusion (GPS, HEK-293T) (PSI 1-6); higher = more stable
Conditions: c terminus: a fixed tail appended
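Note: lentivirally expressed fusions sorted by FACS into six bins by GFP to DsRed ratio, PSI derived from sequencing read proportions per bin multiplied by bin number.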

Variant	protein stability index
FVAENSSKHPESGQENDATSPHFS [L8K]	2.68
FVAENSSAHPESGQENDATSPHFS [L8A]	3.41
FVAENSSQHPESGQENDATSPHFS [L8Q]	3.62
FVAENSSGHPESGQENDATSPHFS [L8G]	3.78
FVAENSSPHPESGQENDATSPHFS [L8P]	3.41
FVAENSSMHPESGQENDATSPHFS [L8M]	3.06
FVAENSSTHPESGQENDATSPHFS [L8T]	3.64
FVAENSSYHPESGQENDATSPHFS [L8Y]	2.28
FVAENSSEHPESGQENDATSPHFS [L8E]	3.86
FVAENSSFHPESGQENDATSPHFS [L8F]	2.4
FVAENSSSHPESGQENDATSPHFS [L8S]	3.75
FVAENSSCHPESGQENDATSPHFS [L8C]	2.8
FVAENSSRHPESGQENDATSPHFS [L8R]	2.49
FVAENSSIHPESGQENDATSPHFS [L8I]	3.24
FVAENSSWHPESGQENDATSPHFS [L8W]	1.72
FVAENSSVHPESGQENDATSPHFS [L8V]	3.01
FVAENSSHHPESGQENDATSPHFS [L8H]	3.04
FVAENSSDHPESGQENDATSPHFS [L8D]	3.62
FVAENSSNHPESGQENDATSPHFS [L8N]	3.65
FVAENSSLYPESGQENDATSPHFS [H9Y]	2.88
FVAENSSLCPESGQENDATSPHFS [H9C]	3.15
FVAENSSLPPESGQENDATSPHFS [H9P]	3.6
FVAENSSLLPESGQENDATSPHFS [H9L]	2.96
FVAENSSLTPESGQENDATSPHFS [H9T]	3.7

Variant	protein stability index
FVAENSSLSPESGQENDATSPHFS [H9S]	3.32
FVAENSSLIPESGQENDATSPHFS [H9I]	2.9
FVAENSSLEPESGQENDATSPHFS [H9E]	4.49
FVAENSSLVPESGQENDATSPHFS [H9V]	3.03
FVAENSSLAPESGQENDATSPHFS [H9A]	3.38
FVAENSSLQPESGQENDATSPHFS [H9Q]	3.5
FVAENSSLMPESGQENDATSPHFS [H9M]	3.08
FVAENSSLDPESGQENDATSPHFS [H9D]	3.8
FVAENSSLFPESGQENDATSPHFS [H9F]	2.95
FVAENSSLNPESGQENDATSPHFS [H9N]	2.8
FVAENSSLRPESGQENDATSPHFS [H9R]	2.79
FVAENSSLGPESGQENDATSPHFS [H9G]	3.4
FVAENSSLKPESGQENDATSPHFS [H9K]	3.62
FVAENSSLWPESGQENDATSPHFS [H9W]	1.61
FVAENKSLHPESGQENDATSPHFS [S6K]	2.72
FVAENCSLHPESGQENDATSPHFS [S6C]	2.46
FVAENNSLHPESGQENDATSPHFS [S6N]	2.69
FVAENLSLHPESGQENDATSPHFS [S6L]	1.5
FVAENMSLHPESGQENDATSPHFS [S6M]	2.55
FVAENPSLHPESGQENDATSPHFS [S6P]	2.58
FVAENASLHPESGQENDATSPHFS [S6A]	2.96
FVAENQSLHPESGQENDATSPHFS [S6Q]	3.08
FVAENRSLHPESGQENDATSPHFS [S6R]	2.27
FVAENFSLHPESGQENDATSPHFS [S6F]	2.21

Variant	protein stability index
FVAENWSLHPESGQENDATSPHFS [S6W]	2.07
FVAENDSLHPESGQENDATSPHFS [S6D]	4.33
FVAENGSLHPESGQENDATSPHFS [S6G]	3.37
FVAENYSLHPESGQENDATSPHFS [S6Y]	2.85
FVAENHSLHPESGQENDATSPHFS [S6H]	3.01
FVAENISLHPESGQENDATSPHFS [S6I]	2.38
FVAENTSLHPESGQENDATSPHFS [S6T]	3.34
FVAENVSLHPESGQENDATSPHFS [S6V]	2.48
FVAENESLHPESGQENDATSPHFS [S6E]	4.05
FVAENSSLHKESGQENDATSPHFS [P10K]	2.98
FVAENSSLHIESGQENDATSPHFS [P10I]	3.23
FVAENSSLHFESGQENDATSPHFS [P10F]	2.48
FVAENSSLHLESGQENDATSPHFS [P10L]	2.9
FVAENSSLHMESGQENDATSPHFS [P10M]	2.46
FVAENSSLHGESGQENDATSPHFS [P10G]	3.29
FVAENSSLHAESGQENDATSPHFS [P10A]	3.06
FVAENSSLHHESGQENDATSPHFS [P10H]	3.61
FVAENSSLHEESGQENDATSPHFS [P10E]	3.54
FVAENSSLHDESGQENDATSPHFS [P10D]	3.32
FVAENSSLHCESGQENDATSPHFS [P10C]	2.84
FVAENSSLHNESGQENDATSPHFS [P10N]	3.63
FVAEWSSLHPESGQENDATSPHFS [N5W]	1.99
FVAESSSLHPESGQENDATSPHFS [N5S]	2.57
FVAEVSSLHPESGQENDATSPHFS [N5V]	2.96

Variant	protein stability index
FVAETSSLHPESGQENDATSPHFS [N5T]	2.77
FVAEYSSLHPESGQENDATSPHFS [N5Y]	2.87
FVAERSSLHPESGQENDATSPHFS [N5R]	2.16
FVAENSQLHPESGQENDATSPHFS [S7Q]	3.37
FVAENSCLHPESGQENDATSPHFS [S7C]	2.46
FVAENSPLHPESGQENDATSPHFS [S7P]	3.11
FVAENSILHPESGQENDATSPHFS [S7I]	2.39
FVAENSELHPESGQENDATSPHFS [S7E]	4.06
FVAENSNLHPESGQENDATSPHFS [S7N]	3.3
FVAENSFLHPESGQENDATSPHFS [S7F]	2.27
FVAENSRLHPESGQENDATSPHFS [S7R]	2.13
FVAENSALHPESGQENDATSPHFS [S7A]	3.13
FVAENSMLHPESGQENDATSPHFS [S7M]	2.22
FVAENSTLHPESGQENDATSPHFS [S7T]	3.24
FVAENSKLHPESGQENDATSPHFS [S7K]	2.51
FVAENSGLHPESGQENDATSPHFS [S7G]	3.29
FVAENSWLHPESGQENDATSPHFS [S7W]	3.07
FVAENSHLHPESGQENDATSPHFS [S7H]	2.83
FVAENSLLHPESGQENDATSPHFS [S7L]	2.67
FVAENSYLHPESGQENDATSPHFS [S7Y]	1.93
FVAENSDLHPESGQENDATSPHFS [S7D]	4.39
FVAENSVLHPESGQENDATSPHFS [S7V]	2.73
